Measurements reported in US20050152896A1 (Amgen, published 2005).
Numbering of substitutions follows the chain as printed. Values belong to the binder of their own block, whether it stands above or below them.

Key:
[1] = biological target: T1, murine galanin (mature, processed form) (murine, UniProt P47212 33-61, not fully specified); experiment: epitope mapping
T1 construct: mature
T1 peptide (looked up): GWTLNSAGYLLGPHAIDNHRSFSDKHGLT

[2] = biological target: T2, human galanin (mature, processed form) (human, UniProt P22466 33-62, 125I-labelled in the filtration and immunoprecipitation assays; biotinylated in the IGEN assay and in the BIAcore assay of Table 4); experiment: BIAcore SPR; biotinylated galanin on a streptavidin chip, MAb flowed
T2 construct: mature; the assays used the mature peptide; also called biotinylated galanin
T2 peptide (looked up): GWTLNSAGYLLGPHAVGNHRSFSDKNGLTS
Protocol: The galanin binding assay uses the ORIGEN technology (IGEN, Gaithersburg, Md.) and measures solution state binding. 0.75 μg/ml biotinylated galanin and 2 μg/ml ORI-TAG anti-mouse IgG were preincubated with serially diluted MAbs. 0.4 mg/ml streptavidin-coated Dyna beads were added, incubated, and read on an IGEN M8 Analyzer. In the plasmon surface resonance assay, biotinylated galanin was bound to a streptavidin-coated sensor chip and MAbs allowed to pass through the flow cells in order to generate on and off rates. In every assay tested, the MAbs ranked in virtually the same order.

[3] = biological target: T3, peptide of the 14 C-terminal amino acids of human galanin (human, UniProt P22466 49-62); experiment: co-crystal structure
T3 construct: domain: 14 C-terminal amino acids of human galanin
T3 peptide (looked up): GNHRSFSDKNGLTS

[4] = biological target: T2, human galanin (mature, processed form); experiment: BIAcore 3000; IgG captured by goat anti-human IgG Fc on CM5, human galanin peptide flowed; 1:1 Langmuir fit
Text: In terms of ELISA signal, the top 17 Fab fragments consisted of various combinations of three light chains and five heavy chains. For example, the heavy variable region of Fab P1A7 was identical to the heavy variable regions of Fabs R2E9 and R2E8. The five heavy variable regions were amplified by PCR and the PCR products were subcloned into a human IgG1 heavy chain mammalian expression vector, pVE414N. The three light variable region products were amplified by PCR and were subcloned into a human kappa light chain mammalian expression vector, pDC414N. The sequences of the heavy and light chains constructs were confirmed by DNA sequencing. Fab fragment P1A7 yielded the strongest ELISA signal. To determine which heavy or light variable regions might yield the highest affinity antibody, each heavy chain was co-expressed with the P1A7 light chain, and each light chain was co-expressed with the P1A7 heavy chain. These IgG heavy and light chain combinations were expressed in […] and were purified from the cell culture medium using protein A affinity chromatography. Affinities of these purified antibodies were measured on a BIAcore 3000. Goat anti-human IgG Fc antibody immobilized on CM5 sensor chips was used to capture P1A7 and the variants. Human galanin peptide was flowed over the chip surface with captured anti galanin antibody. The binding kinetics was analyzed using the model fit of 1:1 Langmuir+local Rmax+Mass Transfer. […] Antibodies with P1A7 light chain paired with the five different heavy chains yield nearly identical dissociation constants.

B1: murine monoclonal antibody 2E11 (antibody, V domains shown)
VH: EIQLQQSGAEVMKPGASVKISCKATGYTFSNYWIEWIKQRPGHGLEWIGEILPGSESTKYNEKFKGKATFTTDTSSNTAYMQLSSLTSEDSAVYYCATFYGGFDYWGQGTTLTVSS
VL: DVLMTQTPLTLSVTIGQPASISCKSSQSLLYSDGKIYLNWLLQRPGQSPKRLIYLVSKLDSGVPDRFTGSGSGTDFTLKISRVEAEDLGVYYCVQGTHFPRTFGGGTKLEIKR
notes: the legend is followed
- binding result [1]: binds
- Ka [2]: 5e+08 M⁻¹
- Kd [2]: 2.1 nM

B2: murine monoclonal antibody 4B3 (antibody, mouse IgG1, V domains shown)
VH: EIQLQQSEAELVKPGASVRLSCATSGFNIKDYYIHWVKQTTEQGLEWIGRIDPEDGETEYAPKFQGKATIAADTSSNTAYLLLNSLSSEDTAVYYCTRGYASWGQGTTLTVSS
VL: DVLMTQTPLSLSVSLGDQASISCRSSQSFVHSDGNTYLEWYLQKSGQSPKLLIYKVSNRFSGVPDRFSGSGSGTDFTLKINRVEAEDLGVYYCFQGSHVPYTFGGGTKLEIKR
notes: purified from ascites
- binding result [1]: binds
- Ka [2]: 1.4e+10 M⁻¹
- Kd [2]: 0.07 nM

B3: murine monoclonal antibody 1G12 (antibody, mouse IgG1, V domains shown)
VH: EVQLQQSGAELVKPGASVQLSCTASGFNIKDYYIHWVQQRTEQGLEWIGRIDPEDGEIEYAPKFQDKATITADTSSNTAYLQLSSLTSEDSAVYYCTRGYASWGQGTTLTVSS
VL: B2 VL with S12P, S28T, S45P, N81S
notes: The legend prints 'murine 1G2' for the VH
- binding result [1]: binds
- Ka [2]: 9.3e+09 M⁻¹
- Kd [2]: 0.11 nM

B4: murine monoclonal antibody 2F8 (antibody, mouse IgG1, V domains shown)
VH: EVQLQQSGAELVRPGALVKLSCKASGFNIEDYYIHWVRQRPEEGLEWIGRIDPENGNTIYDPKFQGKASLTADTSSNTAYLQLSSLTSEDTAVYFCARGYVDWGQGTLVTVSA
VL: B2 VL with S12P, F29I, N35D, S45P, N81I, V90L, Y92F
- binding result [1]: binds
- Ka [2]: 6.8e+09 M⁻¹
- Kd [2]: 0.15 nM

B5: murine monoclonal antibody 5B4 (antibody, mouse IgG2a, V domains shown)
VH: B4 VH with I34M, L70I, F95Y, A97V
VL: B2 VL with S12P, F29I, N35D, S45A, N81S, V90L
notes: purified from ascites; also called hybridoma 5B4C1 (ATCC PTA-5651)
- binding result [1]: binds
- Ka [2]: 7.5e+09 M⁻¹
- Kd [2]: 0.13 nM

B6: murine monoclonal antibody 1D7 (antibody, mouse IgG1, V domains shown)
VH: B2 VH
VL: B2 VL
notes: purified from ascites; also called hybridoma 1D7D1 (ATCC PTA-5650)
- binding result [1]: binds
- Ka [2]: 1.5e+10 M⁻¹
- Kd [2]: 0.09 nM

B7: Fab fragment of murine antibody 5B4 (Fab, V domains shown)
VH: B4 VH with I34M, L70I, F95Y, A97V
VL: B2 VL with S12P, F29I, N35D, S45A, N81S, V90L
notes: Papain Fab of the hybridoma antibody; also called 5B4 Fab
- binding result [3]: binds

B9: Fab fragment of murine antibody 1D7 (Fab, V domains shown)
VH: B2 VH
VL: B2 VL
notes: Papain Fab of the hybridoma antibody; also called 1D7 Fab
- binding result [3]: binds

B10: Fab fragment of murine antibody 4B3 (Fab, V domains shown)
VH: B2 VH
VL: B2 VL
notes: Papain Fab of the hybridoma antibody; also called 4B3 Fab
- binding result [3]: binds

B12: humanized 5B4 IgG1: light chain zu5B4 v04 with heavy chain zu5B4 v04 (antibody, V domains shown)
VH: EVQLVQSGAEVKKPGATVKISCKVSGFNIEDYYMHWVQQAPGKGLEWMGRIDPENGNTIYDPKFQGRVTITADTSTNTAYLDLSSLRSEDTAVYYCARGYVDWGQGTLVTVSS
VL: DVVMTQSPLSLPVTLGQPASISCRSSQSIVHSDGDTYLEWYLQRPGQSPMLLIYKVSNRFSGVPDRFSGSGSGTDFTLKITRVEAEDVGVYYCFQGSHVPYTFGGGTKVEIKR
notes: also called P1A7 (as IgG1); humanized 5B4-v4
- Kd [4]: 1.8 nM
- koff [4]: 0.0059 s⁻¹
- kon [4]: 3.3e+06 M⁻¹ s⁻¹

B13: humanized 5B4 IgG1: light chain zu5B4 v04 with heavy chain zu5B4 v06 (antibody, V domains shown)
VH: B12 VH with M48I, V68A
VL: B12 VL
notes: Human IgG1 / human kappa, expressed in E5 cells; VH of humanized 5B4-v6, VL of humanized 5B4-v4
- Kd [4]: 1.6 nM
- koff [4]: 0.0051 s⁻¹
- kon [4]: 3.2e+06 M⁻¹ s⁻¹

Second part, the binder after the results:

- Ka [2]: 6.7e+09 M⁻¹
- Kd [2]: 0.15 nM
B8: murine monoclonal antibody 2H9 (antibody, mouse IgG1, V domains shown)
VH: B2 VH
VL: B2 VL

- Ka [2]: 2.5e+09 M⁻¹
- Kd [2]: 0.4 nM
B11: murine monoclonal antibody 1A1 (antibody, V domains shown)
VH: EIQLQQSEAELVRPGALVKLSCKTSGFNIKDYYMHWVKQRPEQGLEWIGRIDPENDNSIYDPNFQGKASITADTSSNTAYLQLSSLTSEDTAVYYCVRGYVDWGQGTLVTVSA
VL: B2 VL with S12P, F29I, N35D, S45P, Y54F, N81S
notes: the legend is followed

- Kd [4]: 2.3 nM
- koff [4]: 0.0095 s⁻¹
- kon [4]: 4.2e+06 M⁻¹ s⁻¹
B14: humanized 5B4 IgG1: light chain zu5B4 v05 with heavy chain zu5B4 v04 (antibody, V domains shown)
VH: B12 VH
VL: B12 VL with L42Q, L51S
notes: Human IgG1 / human kappa, expressed in E5 cells; VH of humanized 5B4-v4, VL of humanized 5B4-v5

- Kd [4]: 1.5 nM
- koff [4]: 0.0048 s⁻¹
- kon [4]: 3.2e+06 M⁻¹ s⁻¹
B15: humanized 5B4 IgG1: light chain zu5B4 v04 with heavy chain zu5B4 v12 (antibody, V domains shown)
VH: B12 VH with V68A, N77D
VL: B12 VL
notes: Human IgG1 / human kappa, expressed in E5 cells; VH of humanized 5B4-v12, VL of humanized 5B4-v4

- Kd [4]: 1.7 nM
- koff [4]: 0.0056 s⁻¹
- kon [4]: 3.2e+06 M⁻¹ s⁻¹
B16: humanized 5B4 IgG1: light chain zu5B4 v04 with heavy chain zu5B4 v11 (antibody, V domains shown)
VH: B12 VH with L81M
VL: B12 VL
notes: Human IgG1 / human kappa, expressed in E5 cells; VH of humanized 5B4-v11, VL of humanized 5B4-v4

- Kd [4]: 2 nM
- koff [4]: 0.007 s⁻¹
- kon [4]: 3.5e+06 M⁻¹ s⁻¹
B17: humanized 5B4 IgG1: light chain zu5B4 v13 with heavy chain zu5B4 v04 (antibody, V domains shown)
VH: B12 VH
VL: B12 VL with L42Q
notes: Human IgG1 / human kappa, expressed in E5 cells; VH of humanized 5B4-v4, VL of humanized 5B4-v13

- Kd [4]: 1.8 nM
- koff [4]: 0.005 s⁻¹
- kon [4]: 2.8e+06 M⁻¹ s⁻¹
B18: humanized 5B4 IgG1: light chain zu5B4 v04 with heavy chain zu5B4 v13 (antibody, V domains shown)
VH: B12 VH with M48I, L81M
VL: B12 VL
notes: Human IgG1 / human kappa, expressed in E5 cells; VH of humanized 5B4-v13, VL of humanized 5B4-v4
